For one molecule, remaining current (%): peak 5-HT-evoked current of 5-HT3A channels co-expressed with RIC-3 divided by that of the channels alone; TEVC in Xenopus oocytes, 10 uM serotonin results are on record in article PMC10083716.

Assay [1] has as its target T1, mouse 5-HT3A receptor R349A, full length (mouse) (UniProt P23979).
T1 sequence: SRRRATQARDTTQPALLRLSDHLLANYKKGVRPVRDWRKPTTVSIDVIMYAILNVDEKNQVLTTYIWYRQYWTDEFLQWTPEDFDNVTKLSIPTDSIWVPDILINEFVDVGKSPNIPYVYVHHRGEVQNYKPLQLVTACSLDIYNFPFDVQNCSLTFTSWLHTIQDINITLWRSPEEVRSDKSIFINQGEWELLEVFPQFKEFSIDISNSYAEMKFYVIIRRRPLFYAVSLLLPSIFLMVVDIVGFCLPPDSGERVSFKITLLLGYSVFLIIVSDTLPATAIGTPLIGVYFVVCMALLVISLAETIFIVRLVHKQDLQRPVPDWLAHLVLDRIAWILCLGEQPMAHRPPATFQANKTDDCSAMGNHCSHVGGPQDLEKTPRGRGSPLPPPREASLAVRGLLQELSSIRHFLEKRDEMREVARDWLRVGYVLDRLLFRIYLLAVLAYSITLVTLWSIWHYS

In assay [2] the target is T2, mouse 5-HT3A receptor, wild type, full length (mouse) (UniProt P23979).
T2 sequence: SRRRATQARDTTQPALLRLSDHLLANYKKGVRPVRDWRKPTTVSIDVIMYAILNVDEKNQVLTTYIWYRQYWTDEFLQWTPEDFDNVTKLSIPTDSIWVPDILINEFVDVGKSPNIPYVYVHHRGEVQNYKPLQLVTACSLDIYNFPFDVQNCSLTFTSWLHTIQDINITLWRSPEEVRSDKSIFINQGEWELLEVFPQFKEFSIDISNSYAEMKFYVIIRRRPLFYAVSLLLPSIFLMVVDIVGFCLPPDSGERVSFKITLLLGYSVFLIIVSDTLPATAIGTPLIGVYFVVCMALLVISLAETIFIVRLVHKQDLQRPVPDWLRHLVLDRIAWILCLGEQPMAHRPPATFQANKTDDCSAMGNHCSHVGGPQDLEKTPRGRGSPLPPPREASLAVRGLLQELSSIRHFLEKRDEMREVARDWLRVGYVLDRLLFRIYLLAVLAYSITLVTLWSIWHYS

Assay [3] has as its target T3, mouse 5-HT3A receptor W347A, full length (mouse) (UniProt P23979).
T3 sequence: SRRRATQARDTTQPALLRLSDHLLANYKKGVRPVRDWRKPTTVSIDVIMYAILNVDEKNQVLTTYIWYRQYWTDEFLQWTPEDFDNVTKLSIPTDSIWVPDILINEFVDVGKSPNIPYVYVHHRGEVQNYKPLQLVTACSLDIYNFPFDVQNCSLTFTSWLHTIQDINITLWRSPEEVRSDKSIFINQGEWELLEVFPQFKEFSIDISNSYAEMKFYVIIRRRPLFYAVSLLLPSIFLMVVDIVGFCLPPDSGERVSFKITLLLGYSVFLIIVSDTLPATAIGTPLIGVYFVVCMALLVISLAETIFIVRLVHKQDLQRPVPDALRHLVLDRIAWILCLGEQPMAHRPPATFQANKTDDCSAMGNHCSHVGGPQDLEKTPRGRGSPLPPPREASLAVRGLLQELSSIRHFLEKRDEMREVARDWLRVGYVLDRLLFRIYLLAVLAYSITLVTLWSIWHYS

Assay [4] has as its target T4, mouse 5-HT3A receptor L353A, full length (mouse) (UniProt P23979).
T4 sequence: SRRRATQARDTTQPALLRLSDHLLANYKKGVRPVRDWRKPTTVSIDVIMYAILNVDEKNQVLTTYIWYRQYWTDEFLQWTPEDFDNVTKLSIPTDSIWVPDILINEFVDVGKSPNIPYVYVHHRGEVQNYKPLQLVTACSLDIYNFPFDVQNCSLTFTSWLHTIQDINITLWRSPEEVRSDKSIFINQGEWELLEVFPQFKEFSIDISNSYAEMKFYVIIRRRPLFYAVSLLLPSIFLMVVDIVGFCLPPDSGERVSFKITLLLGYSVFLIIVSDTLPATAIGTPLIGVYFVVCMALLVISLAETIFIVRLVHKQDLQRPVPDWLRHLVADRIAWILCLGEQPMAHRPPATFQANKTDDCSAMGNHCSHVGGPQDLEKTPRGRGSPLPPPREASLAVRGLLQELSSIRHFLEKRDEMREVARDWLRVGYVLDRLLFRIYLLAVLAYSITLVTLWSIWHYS

Assay [5] deals with T5, mouse 5-HT3A receptor W347A, R349A, L353A, full length (mouse) (UniProt P23979).
T5 sequence: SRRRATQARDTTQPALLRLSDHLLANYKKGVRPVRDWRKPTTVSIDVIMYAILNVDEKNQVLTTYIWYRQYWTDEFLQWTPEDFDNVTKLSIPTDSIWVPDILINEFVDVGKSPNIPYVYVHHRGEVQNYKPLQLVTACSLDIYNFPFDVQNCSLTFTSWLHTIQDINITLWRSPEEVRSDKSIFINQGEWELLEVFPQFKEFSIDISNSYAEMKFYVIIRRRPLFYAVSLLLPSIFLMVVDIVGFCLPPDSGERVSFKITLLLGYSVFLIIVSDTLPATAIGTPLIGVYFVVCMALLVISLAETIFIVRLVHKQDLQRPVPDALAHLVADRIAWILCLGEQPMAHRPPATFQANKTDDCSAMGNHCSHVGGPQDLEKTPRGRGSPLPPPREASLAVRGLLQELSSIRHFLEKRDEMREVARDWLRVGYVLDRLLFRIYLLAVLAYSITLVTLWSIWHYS

The target of assay [6] is T6, mouse 5-HT3A receptor W447A, R449A, L454A, full length (mouse) (UniProt P23979).
T6 sequence: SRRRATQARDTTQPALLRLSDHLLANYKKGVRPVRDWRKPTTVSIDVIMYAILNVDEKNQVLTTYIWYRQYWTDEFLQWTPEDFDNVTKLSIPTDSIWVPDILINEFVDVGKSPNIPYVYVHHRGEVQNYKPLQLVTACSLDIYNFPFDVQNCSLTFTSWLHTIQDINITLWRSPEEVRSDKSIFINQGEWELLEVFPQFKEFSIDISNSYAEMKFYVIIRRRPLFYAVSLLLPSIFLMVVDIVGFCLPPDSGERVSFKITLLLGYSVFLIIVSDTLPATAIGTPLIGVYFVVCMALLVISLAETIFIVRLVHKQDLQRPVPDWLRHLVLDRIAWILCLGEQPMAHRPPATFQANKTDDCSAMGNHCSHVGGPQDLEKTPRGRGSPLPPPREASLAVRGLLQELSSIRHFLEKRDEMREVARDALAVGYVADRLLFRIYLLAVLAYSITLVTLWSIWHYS

B1: resistance to inhibitors of choline esterase (RIC-3) protein (natural protein)
chain: SRGKRQEPPPTPEGKLGRFPPMMHHHQAPSDGQTPGARFQRSHLAEAFAKAKGSGGGAGGGGSGRGLMGQIIPIYGFGIFLYILYILFKLSKGKTTAEDGKCYTAMPGNTHRKITSFELAQLQEKLKETEAAMEKLINRVGPNGESRAQTVTSDQEKRLLHQLREITRVMKEGKFIDRFSPEKEAEEAPYMEDWEGYPEETYPIYDLSDCIKRRQETILVDYPDPKELSAEEIAERMGMIEEEESDHLGWESLPTDPRAQEDNSVTSCDPKPETCSCCFHEDEDPAVLAENAGFSADSYPEQEETTKEEWSQDFKDEGLGISTDKAYTGSMLRKRNPQGLE
For the molecule B1, the remaining current (%): peak 5-HT-evoked current of 5-HT3A channels co-expressed with RIC-3 divided by that of the channels alone; TEVC in Xenopus oocytes, 10 uM serotonin in assay [1] worked out at 33.9%; in assay [2], 15.6%; in assay [3] it was 43.4%; in assay [4], 50%; in assay [5], 40.6%; in assay [6], 36.9%.
